The text below walks through data of US20250011422A1 (UNIVERSITY OF FLORIDA RESEARCH FOUNDATION, published 2025).

In assay [1] the target is T1, human Siglec-6 on the cell surface (U937, MEC1-002, MEC1-hS6, primary CLL cells) (human, UniProt O43699 27-453). The experiment in a line: cell-based or functional assay.
Assay [2] has as its target T2, CD3 on human T cells (human, UniProt P07766 23-207).
T2 construct: whole, on cells; CD3 is a complex; also called CD3+ cells
The assay is described as follows: flow cytometry titration on primary human T cells, Alexa Fluor 647 anti-human Fc secondary antibody, percent biAb+ cells. On the technique in general: In flow cytometry, cells or beads pass a laser one at a time.
Experimental: (§1) To determine whether T-biAb format affected the affinity to Siglec-6 or CD3 on the cell surface, T-biAbs were titrated and used to stain cells for flow cytometry (FIG. 17a).
(§2) Flow cytometry: Fabs were used to stain cells at a concentration of 2 μg/mL, unless otherwise noted. […] Samples were analyzed on either an Accuri C6 Plus or a LSRII flow cytometer (both from BD Biosciences).

In another assay the target is T3, Siglec-6 VC28-235-His6 (human, UniProt O43699 28-235).
T3 construct: It was deglycosylated with PNGase F for HDX-MS; also called soluble Siglec-6 (aa 28-235-His6); Siglec-6 ectodomain fragment
The assay is described as follows: SPR, T-biAb immobilised via the Fc domain, soluble Siglec-6 (aa 28-235-His6) injected. For orientation: Surface plasmon resonance follows binding to a sensor surface in real time, without labels.

For assay [3], the target named is T1, human Siglec-6 on the cell surface …. The experiment in a line: flow cytometry titration on MEC1-hS6 cells, apparent Kd; scFv-Fc format, RC-1 clone.
Experimental: as §1, §2
Assay [4] has the same target. The assay is described as follows: cell-based or functional assay. The source holds these as a separate data set.
Assay [5] deals with T2, CD3 on human T cells. The assay is described as follows: flow cytometry titration on primary human T cells.
Experimental: as §1, §2

T1 sequence (O43699 27-453): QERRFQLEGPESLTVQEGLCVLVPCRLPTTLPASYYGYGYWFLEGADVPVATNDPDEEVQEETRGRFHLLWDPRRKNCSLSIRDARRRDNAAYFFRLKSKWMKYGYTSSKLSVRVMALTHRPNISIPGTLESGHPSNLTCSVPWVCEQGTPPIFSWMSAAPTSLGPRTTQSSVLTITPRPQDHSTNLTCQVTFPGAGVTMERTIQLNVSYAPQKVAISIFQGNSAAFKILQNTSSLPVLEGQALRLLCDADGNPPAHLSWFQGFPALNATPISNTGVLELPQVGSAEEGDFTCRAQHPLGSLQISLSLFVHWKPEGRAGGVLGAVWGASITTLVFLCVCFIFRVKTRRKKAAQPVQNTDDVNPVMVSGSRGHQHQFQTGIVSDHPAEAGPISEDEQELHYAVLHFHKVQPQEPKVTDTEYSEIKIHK
T3 sequence (O43699 other isoform, or with tags, fused parts or gaps limits assumed): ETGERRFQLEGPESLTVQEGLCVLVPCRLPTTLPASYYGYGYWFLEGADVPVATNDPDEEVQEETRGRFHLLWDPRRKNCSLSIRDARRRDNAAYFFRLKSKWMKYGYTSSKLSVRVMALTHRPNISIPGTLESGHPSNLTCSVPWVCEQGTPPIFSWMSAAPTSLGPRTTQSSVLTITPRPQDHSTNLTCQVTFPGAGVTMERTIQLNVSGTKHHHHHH
T2 sequence (P07766 23-207): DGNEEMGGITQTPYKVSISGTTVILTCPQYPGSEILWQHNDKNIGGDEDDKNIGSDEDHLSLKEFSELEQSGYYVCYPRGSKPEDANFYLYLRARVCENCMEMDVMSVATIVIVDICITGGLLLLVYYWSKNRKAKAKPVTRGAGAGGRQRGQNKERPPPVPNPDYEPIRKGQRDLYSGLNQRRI
Experimental for Siglec-6 VC28-235-His6: Fab kinetics were determined by capturing Siglec-6-Fc (5-10 μg/mL) in HBS-EP+ buffer (Cytiva) and injecting titrated. […] Biacore evaluation software was used to calculate kₒₙ, koff, and Kd.

B1: RC-1/V9 scFv-Fc (bispecific antibody)
chain 1: not shown
chain 2: EVQLVESGGGLVQPGGSLRLSCAASGYSFTGYTMNWVRQAPGKGLEWVALINPYKGVSTYNQKFKDRFTISVDKSKNTAYLQMNSLRAEDTAVYYCARSGYYGDSDWYFDVWGQGTLVTVSSGGGGSGGGGSGGGGSDIQMTQSPSSLSASVGDRVTITCRASQDIRNYLNWYQQKPGKAPKLLIYYTSRLESGVPSRFSGSGSGTDYTLTISSLQPEDFATYYCQQGNTLPWTFGQGTKVEIKEPKSSDKTHTCPPCPAPELLGGPSVFLFPPKPKDTLMISRTPEVTCVVVDVSHEDPEVKFNWYVDGVEVHNAKTKPREEQYASTYRVVSVLTVLHQDWLNGKEYKCKVSNKALPAPIEKTISKAKGQPREPQVCTLPPSRDELTKNQVSLSCAVKGFYPSDIAVEWESNGQPENNYKTTPPVLDSDGSFFLVSKLTVDKSRWQQGNVFSCSVMHEALHNHYTQKSLSLSPGA
notes: Knobs-into-holes heterodimer of the RC-1 scFv-Fc knob arm and the shared anti-CD3 V9 scFv-Fc hole arm; also called RC-1 clone in scFv-Fc format
As to B1, the “EC50 (read off the curve), NFAT reporter activation with MEC1-002 cells” value in assay [1] is roughly 0.1 nM. Also, the EC50 (read off the curve) – broadly, the concentration needed to bring the measured effect to its halfway point – with CD3 on human T cells [2] is roughly 0.05 nM. Also, in the assay with Siglec-6 VC28-235-His6, the Kd came to 0.1 nM; the koff (usually a measure of how fast the partners let go of each other) came out at 0.00031 s⁻¹; the kon (as a rule, the rate constant with which the complex forms) is 3.05e+06 M⁻¹ s⁻¹. The Kd in assay [3] is 1.1 nM. In addition, in assay [4], the “specific lysis of MEC1-hS6 by healthy donor T cells, EC50” value was 0.003 nM and the “specific lysis of primary CLL cells by autologous T cells, day 11, median” value turned out to be 2.4%. Besides, the “fold more potent binding than the aDART-Fc” value with CD3 on human T cells [5] is roughly 2 fold.
